This is an account of results in patent US20190388471A1 (published 2019).

This assay concerns the target T1, human CD19 (full length, expressed on cells) (human, UniProt P15391 20-556).
T1 construct: whole, on cells; The functional assays used K562 cells transduced to express CD19; also called hsCD19; hCD19
T1 sequence (looked up): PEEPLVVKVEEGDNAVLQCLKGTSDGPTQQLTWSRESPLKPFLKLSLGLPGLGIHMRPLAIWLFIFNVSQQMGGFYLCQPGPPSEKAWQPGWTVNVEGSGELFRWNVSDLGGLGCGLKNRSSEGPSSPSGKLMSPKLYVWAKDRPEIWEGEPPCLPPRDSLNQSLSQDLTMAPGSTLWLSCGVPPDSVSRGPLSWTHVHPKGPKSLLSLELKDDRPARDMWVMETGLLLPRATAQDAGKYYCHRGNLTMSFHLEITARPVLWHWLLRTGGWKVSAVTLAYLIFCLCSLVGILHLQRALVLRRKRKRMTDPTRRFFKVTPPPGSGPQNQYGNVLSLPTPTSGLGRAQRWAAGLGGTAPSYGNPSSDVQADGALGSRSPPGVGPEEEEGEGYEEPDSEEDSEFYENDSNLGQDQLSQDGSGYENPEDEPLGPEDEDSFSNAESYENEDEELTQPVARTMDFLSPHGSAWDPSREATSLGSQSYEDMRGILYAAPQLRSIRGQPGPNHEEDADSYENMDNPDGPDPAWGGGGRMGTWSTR
The assay is described as follows: flow cytometry; His-tagged soluble scFv on mouse cell line 300 expressing hCD19. The protocol: Mouse cell line 300.CD19 were grown in RPMI 1640 with 0.5 mg/ml Zeocin. Around 5e5 cells/per well were transferred to the BD Falcon 96 well plate. The cells were spin down at 900 rpm (Sorval Legend XT centrifuge) for 3 minutes. The supernatant were removed. Anti-CD19 scFv protein samples were diluted in DPBS with 5% FBS. The samples were added into the wells, mixed well with the cells and incubated for 1 hour. The cells were washed twice in the DPBS with 5% FBS. The cells were incubated with antipoly His PE (R&D) for 1 hour, washed twice before FACS analysis (LSRII from BD Biosciences).

B1: 103104 CAR 3 Soluble scFv (scFv)
scFv: QVQLQESGPGLVKPSETLSLTCTVSGVSLPDYGVSWIRQPPGKGLEWIGVIWGSETTYYSSSLKSRVTISKDNSKNQVSLKLSSVTAADTAVYYCAKHYYYGGSYAMDYWGQGTLVTVSSGGGGSGGGGSGGGGSEIVMTQSPATLSLSPGERATLSCRASQDISKYLNWYQQKPGQAPRLLIYHTSRLHSGIPARFSGSGSGTDYTLTISSLQPEDFAVYFCQQGNTLPYTFGQGTKLEIKHHHHHHHH
notes: also called CAR3 scFv; humanized scFv
With B1, the binding result was “binds”.

B2: 103106 CAR4 Soluble scFv (scFv)
scFv: QVQLQESGPGLVKPSETLSLTCTVSGVSLPDYGVSWIRQPPGKGLEWIGVIWGSETTYYQSSLKSRVTISKDNSKNQVSLKLSSVTAADTAVYYCAKHYYYGGSYAMDYWGQGTLVTVSSGGGGSGGGGSGGGGSEIVMTQSPATLSLSPGERATLSCRASQDISKYLNWYQQKPGQAPRLLIYHTSRLHSGIPARFSGSGSGTDYTLTISSLQPEDFAVYFCQQGNTLPYTFGQGTKLEIKHHHHHHHH
notes: also called CAR4 scFv; humanized scFv
On to B2, for which the binding result is recorded as “binds”.

B3: 103104 CAR12 Soluble scFv (scFv)
scFv: QVQLQESGPGLVKPSETLSLTCTVSGVSLPDYGVSWIRQPPGKGLEWIGVIWGSETTYYNSSLKSRVTISKDNSKNQVSLKLSSVTAADTAVYYCAKHYYYGGSYAMDYWGQGTLVTVSSGGGGSGGGGSGGGGSEIVMTQSPATLSLSPGERATLSCRASQDISKYLNWYQQKPGQAPRLLIYHTSRLHSGIPARFSGSGSGTDYTLTISSLQPEDFAVYFCQQGNTLPYTFGQGTKLEIKHHHHHHHH
notes: The clone number 103104 is printed for both CAR3 and CAR12; also called CAR12 scFv; humanized scFv
Turning to B3, the binding result is “binds”.

B4: 99789 CAR5 Soluble scFv (scFv)
scFv: EIVMTQSPATLSLSPGERATLSCRASQDISKYLNWYQQKPGQAPRLLIYHTSRLHSGIPARFSGSGSGTDYTLTISSLQPEDFAVYFCQQGNTLPYTFGQGTKLEIKGGGGSGGGGSGGGGSGGGGSQVQLQESGPGLVKPSETLSLTCTVSGVSLPDYGVSWIRQPPGKGLEWIGVIWGSETTYYSSSLKSRVTISKDNSKNQVSLKLSSVTAADTAVYYCAKHYYYGGSYAMDYWGQGTLVTVSSHHHHHHHH
notes: also called CAR5 scFv; humanized scFv
As for B4, the binding result is given as “binds”.

B5: 99789 CAR9 Soluble scFv (scFv)
scFv: EIVMTQSPATLSLSPGERATLSCRASQDISKYLNWYQQKPGQAPRLLIYHTSRLHSGIPARFSGSGSGTDYTLTISSLQPEDFAVYFCQQGNTLPYTFGQGTKLEIKGGGGSGGGGSGGGGSGGGGSQVQLQESGPGLVKPSETLSLTCTVSGVSLPDYGVSWIRQPPGKGLEWIGVIWGSETTYYNSSLKSRVTISKDNSKNQVSLKLSSVTAADTAVYYCAKHYYYGGSYAMDYWGQGTLVTVSSHHHHHHHH
notes: The clone number 99789 is printed for both CAR5 and CAR9; also called CAR9 scFv; humanized scFv
As to B5, the binding result was “binds”.

B6: 99790 CAR6 Soluble scFv (scFv)
scFv: EIVMTQSPATLSLSPGERATLSCRASQDISKYLNWYQQKPGQAPRLLIYHTSRLHSGIPARFSGSGSGTDYTLTISSLQPEDFAVYFCQQGNTLPYTFGQGTKLEIKGGGGSGGGGSGGGGSGGGGSQVQLQESGPGLVKPSETLSLTCTVSGVSLPDYGVSWIRQPPGKGLEWIGVIWGSETTYYQSSLKSRVTISKDNSKNQVSLKLSSVTAADTAVYYCAKHYYYGGSYAMDYWGQGTLVTVSSHHHHHHHH
notes: also called CAR6 scFv; humanized scFv
Regarding B6, the binding result was “binds”.

B7: 103101 CAR1 Soluble scFv (scFv)
scFv: EIVMTQSPATLSLSPGERATLSCRASQDISKYLNWYQQKPGQAPRLLIYHTSRLHSGIPARFSGSGSGTDYTLTISSLQPEDFAVYFCQQGNTLPYTFGQGTKLEIKGGGGSGGGGSGGGGSQVQLQESGPGLVKPSETLSLTCTVSGVSLPDYGVSWIRQPPGKGLEWIGVIWGSETTYYSSSLKSRVTISKDNSKNQVSLKLSSVTAADTAVYYCAKHYYYGGSYAMDYWGQGTLVTVSSHHHHHHHH
notes: It is built here as scFv domain plus His tag; also called CAR1 scFv; humanized scFv
For B7, the binding result was “binds”.

B8: 103101 CAR11 Soluble scFv (scFv)
scFv: EIVMTQSPATLSLSPGERATLSCRASQDISKYLNWYQQKPGQAPRLLIYHTSRLHSGIPARFSGSGSGTDYTLTISSLQPEDFAVYFCQQGNTLPYTFGQGTKLEIKGGGGSGGGGSGGGGSQVQLQESGPGLVKPSETLSLTCTVSGVSLPDYGVSWIRQPPGKGLEWIGVIWGSETTYYNSSLKSRVTISKDNSKNQVSLKLSSVTAADTAVYYCAKHYYYGGSYAMDYWGQGTLVTVSSHHHHHHHH
notes: The clone number 103101 is printed for both CAR1 and CAR11; also called CAR11 scFv; 103101-WT (S/N)
As to B8, the binding result was “binds”.

B9: 103102 CAR2 Soluble scFv (scFv)
scFv: EIVMTQSPATLSLSPGERATLSCRASQDISKYLNWYQQKPGQAPRLLIYHTSRLHSGIPARFSGSGSGTDYTLTISSLQPEDFAVYFCQQGNTLPYTFGQGTKLEIKGGGGSGGGGSGGGGSQVQLQESGPGLVKPSETLSLTCTVSGVSLPDYGVSWIRQPPGKGLEWIGVIWGSETTYYQSSLKSRVTISKDNSKNQVSLKLSSVTAADTAVYYCAKHYYYGGSYAMDYWGQGTLVTVSSHHHHHHHH
notes: also called CAR2 scFv; humanized scFv
Take B9: the binding result is reported as “binds”.

B10: 100796 CAR7 Soluble scFv (scFv)
scFv: QVQLQESGPGLVKPSETLSLTCTVSGVSLPDYGVSWIRQPPGKGLEWIGVIWGSETTYYSSSLKSRVTISKDNSKNQVSLKLSSVTAADTAVYYCAKHYYYGGSYAMDYWGQGTLVTVSSGGGGSGGGGSGGGGSGGGGSEIVMTQSPATLSLSPGERATLSCRASQDISKYLNWYQQKPGQAPRLLIYHTSRLHSGIPARFSGSGSGTDYTLTISSLQPEDFAVYFCQQGNTLPYTFGQGTKLEIKHHHHHHHH
notes: also called CAR7 scFv; humanized scFv
As to B10, the binding result is recorded as “binds”.

B11: 100798 CAR8 Soluble scFv (scFv)
scFv: QVQLQESGPGLVKPSETLSLTCTVSGVSLPDYGVSWIRQPPGKGLEWIGVIWGSETTYYQSSLKSRVTISKDNSKNQVSLKLSSVTAADTAVYYCAKHYYYGGSYAMDYWGQGTLVTVSSGGGGSGGGGSGGGGSGGGGSEIVMTQSPATLSLSPGERATLSCRASQDISKYLNWYQQKPGQAPRLLIYHTSRLHSGIPARFSGSGSGTDYTLTISSLQPEDFAVYFCQQGNTLPYTFGQGTKLEIKHHHHHHHH
notes: also called CAR8 scFv; humanized scFv
As for B11, the binding result is “binds”.

B12: 100796 CAR10 Soluble scFv (scFv)
scFv: QVQLQESGPGLVKPSETLSLTCTVSGVSLPDYGVSWIRQPPGKGLEWIGVIWGSETTYYNSSLKSRVTISKDNSKNQVSLKLSSVTAADTAVYYCAKHYYYGGSYAMDYWGQGTLVTVSSGGGGSGGGGSGGGGSGGGGSEIVMTQSPATLSLSPGERATLSCRASQDISKYLNWYQQKPGQAPRLLIYHTSRLHSGIPARFSGSGSGTDYTLTISSLQPEDFAVYFCQQGNTLPYTFGQGTKLEIKHHHHHHHH
notes: The clone number 100796 is printed for both CAR7 and CAR10; also called CAR10 scFv; humanized scFv
With B12, the binding result is on record as “binds”.
